T1: nLAP-tagged WDR59 (WD Repeat Domain 59), endogenously tagged (human (endogenous in HEK293T)), Q6PJI9
T1 chain: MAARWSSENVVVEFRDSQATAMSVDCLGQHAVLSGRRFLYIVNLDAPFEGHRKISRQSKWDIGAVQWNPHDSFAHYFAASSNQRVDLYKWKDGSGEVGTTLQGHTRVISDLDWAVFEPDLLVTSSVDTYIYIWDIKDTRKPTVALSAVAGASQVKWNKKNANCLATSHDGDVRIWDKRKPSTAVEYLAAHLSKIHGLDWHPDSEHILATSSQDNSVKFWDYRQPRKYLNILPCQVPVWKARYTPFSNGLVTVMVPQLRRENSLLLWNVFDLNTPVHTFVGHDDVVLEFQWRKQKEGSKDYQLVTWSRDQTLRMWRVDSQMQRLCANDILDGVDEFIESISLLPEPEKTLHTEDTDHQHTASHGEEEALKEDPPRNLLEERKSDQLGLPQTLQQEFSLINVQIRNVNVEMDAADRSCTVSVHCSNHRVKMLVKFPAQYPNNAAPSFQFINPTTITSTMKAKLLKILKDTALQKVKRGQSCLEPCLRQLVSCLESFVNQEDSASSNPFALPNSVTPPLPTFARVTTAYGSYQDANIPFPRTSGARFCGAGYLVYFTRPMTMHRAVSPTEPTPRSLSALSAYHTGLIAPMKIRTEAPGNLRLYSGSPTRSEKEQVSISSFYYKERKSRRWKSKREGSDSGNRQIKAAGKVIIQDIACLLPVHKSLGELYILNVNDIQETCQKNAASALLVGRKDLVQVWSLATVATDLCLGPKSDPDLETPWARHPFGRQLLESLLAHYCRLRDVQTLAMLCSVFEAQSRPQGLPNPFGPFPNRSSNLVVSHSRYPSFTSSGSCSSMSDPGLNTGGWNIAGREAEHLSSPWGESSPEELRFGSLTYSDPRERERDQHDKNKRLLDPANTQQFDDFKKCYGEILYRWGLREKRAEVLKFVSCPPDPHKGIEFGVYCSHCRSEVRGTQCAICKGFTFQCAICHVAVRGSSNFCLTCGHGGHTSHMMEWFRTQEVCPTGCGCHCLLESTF

T2: nLAP-tagged WDR59 (WD Repeat Domain 59), endogenously tagged (human (endogenous in HEK293T), UniProt Q6PJI9 1-974)
T2 construct: WDR59 (WD Repeat Domain 59), subunit of GATOR2, human; NGFRETD is split off at the P2A site and is not part of this chain; The tag was inserted in the 5'UTR (donor NGFR "-2"); they are printed only as DNA; also called WDR59-GFP; nLAP-WDR59; source: endogenously tagged allele in HEK (Lenti-X 293T) spCas9+ cells, WDR59-NGFRETD-nLAP clone D5, in lysate; not shown: EGFP, N-terminal, kept
T2 sequence (looked up): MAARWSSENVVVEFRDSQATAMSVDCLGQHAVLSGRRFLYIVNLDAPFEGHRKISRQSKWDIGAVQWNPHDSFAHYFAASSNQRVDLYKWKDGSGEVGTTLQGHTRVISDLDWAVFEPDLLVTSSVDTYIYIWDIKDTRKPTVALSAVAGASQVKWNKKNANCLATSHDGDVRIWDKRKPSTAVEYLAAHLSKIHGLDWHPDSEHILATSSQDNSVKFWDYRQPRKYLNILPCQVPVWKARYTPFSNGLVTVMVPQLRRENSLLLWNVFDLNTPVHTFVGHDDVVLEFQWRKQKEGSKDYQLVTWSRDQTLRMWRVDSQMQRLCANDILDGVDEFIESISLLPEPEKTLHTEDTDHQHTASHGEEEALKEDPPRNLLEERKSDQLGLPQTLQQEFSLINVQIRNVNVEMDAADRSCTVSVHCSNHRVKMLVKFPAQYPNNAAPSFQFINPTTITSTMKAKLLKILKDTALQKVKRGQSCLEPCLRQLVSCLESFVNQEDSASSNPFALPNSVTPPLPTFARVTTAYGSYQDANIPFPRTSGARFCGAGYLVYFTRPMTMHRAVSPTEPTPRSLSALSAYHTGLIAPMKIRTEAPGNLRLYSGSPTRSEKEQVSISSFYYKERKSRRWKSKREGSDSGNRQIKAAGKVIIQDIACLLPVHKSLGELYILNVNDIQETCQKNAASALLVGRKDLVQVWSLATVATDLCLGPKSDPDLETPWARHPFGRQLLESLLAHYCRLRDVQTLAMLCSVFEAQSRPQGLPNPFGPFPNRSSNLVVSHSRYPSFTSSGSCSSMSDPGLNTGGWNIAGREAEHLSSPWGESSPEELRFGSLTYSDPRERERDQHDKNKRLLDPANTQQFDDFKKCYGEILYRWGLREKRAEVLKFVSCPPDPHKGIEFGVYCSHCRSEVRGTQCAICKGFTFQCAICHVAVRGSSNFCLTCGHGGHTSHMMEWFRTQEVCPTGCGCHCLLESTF


How the values were obtained:
[1] = target: T1, nLAP-tagged WDR59 (WD Repeat Domain …); assay: co-IP; nLAP-tagged WDR59 precipitated from 1,000-3,000 µg lysate protein with GFP-Trap magnetic agarose beads (GFP-specific nanobodies) overnight at 4°C; CoIP buffer (10 mM Tris-HCl pH 8, 150 mM NaCl, 5 mM EDTA, 0.5% Triton X-100, 60 mM octyl-β-D-glucopyranoside); 5 washes; partners detected by Western blot; cells untreated, amino acid-starved 16 h with or without 60 min stimulation with all amino acids or leucine, …; conditions: remark: other sources report otherwise
[2] = target: T2, nLAP-tagged WDR59 (WD Repeat Domain …); assay: as above; conditions: partners not purified

Row | Binder | co-IP signal after leucine restimulation, fold of the leucine-starved sample [1] [fold] | co-IP signal after restimulation with all amino acids, fold of the amino acid-starved sample (normalised to WDR59-GFP) [1] [fold] | co-IP signal after restimulation with leucine alone, fold of the amino acid-starved sample (normalised to WDR59-GFP) [1] [fold] | co-IP signal after leucine restimulation, fold of the leucine-starved sample [2] [fold] | co-IP signal after restimulation with all amino acids, percent of the amino acid-starved sample (normalised to WDR59-GFP) [2] [%]
1 | NPRL3 (Nitrogen Permease Regulator 3-Like Protein), Q12980 1-569 (natural protein) MRDNTSPISVILVSSGSRGNKLLFRYPFQRSQEHPASQTSKPRSRYAASNTGDHADEQDGDSRFSDVILATILATKSEMCGQKFELKIDNVRFVGHPTLLQHALGQISKTDPSPKREAPTMILFNVVFALRANADPSVINCLHNLSRRIATVLQHEERRCQYLTREAKLILALQDEVSAMADGNEGPQSPFHHILPKCKLARDLKEAYDSLCTSGVVRLHINSWLEVSFCLPHKIHYAASSLIPPEAIERSLKAIRPYHALLLLSDEKSLLGELPIDCSPALVRVIKTTSAVKNLQQLAQDADLALLQVFQLAAHLVYWGKAIIIYPLCENNVYMLSPNASVCLYSPLAEQFSHQFPSHDLPSVLAKFSLPVSLSEFRNPLAPAVQETQLIQMVVWMLQRRLLIQLHTYVCLMASPSEEEPRPREDDVPFTARVGGRSLSTPNALSFGSPTSSDDMTLTSPSMDNSSAELLPSGDSPLNQRMTENLLASLSEHERAAILSVPAAQNPEDLRMFARLLHYFRGRHHLEEIMYNENTRRSQLLMLFDKFRSVLVVTTHEDPVIAVFQALLP | 2 | 1.2 | 1.89 |  | 
2 | WDR24 (WD Repeat Domain 24) (natural protein, human (endogenous in HEK293T), UniProt Q96S15 1-790, looked up, WDR24 (WD Repeat Domain 24), subunit of GATOR2, human, endogenous; also called GATOR2 subunit WDR24; source: endogenous, HEK (Lenti-X 293T) spCas9+ WDR59-NGFRETD-nLAP clone D5 lysate) MEKMSRVTTALGGSVLTGRTMHCHLDAPANAISVCRDAAQVVVAGRSIFKIYAIEEEQFVEKLNLRVGRKPSLNLSCADVVWHQMDENLLATAATNGVVVTWNLGRPSRNKQDQLFTEHKRTVNKVCFHPTEAHVLLSGSQDGFMKCFDLRRKDSVSTFSGQSESVRDVQFSIRDYFTFASTFENGNVQLWDIRRPDRCERMFTAHNGPVFCCDWHPEDRGWLATGGRDKMVKVWDMTTHRAKEMHCVQTIASVARVKWRPECRHHLATCSMMVDHNIYVWDVRRPFVPAAMFEEHRDVTTGIAWRHPHDPSFLLSGSKDSSLCQHLFRDASQPVERANPEGLCYGLFGDLAFAAKESLVAAESGRKPYTGDRRHPIFFKRKLDPAEPFAGLASSALSVFETEPGGGGMRWFVDTAERYALAGRPLAELCDHNAKVARELGRNQVAQTWTMLRIIYCSPGLVPTANLNHSVGKGGSCGLPLMNSFNLKDMAPGLGSETRLDRSKGDARSDTVLLDSSATLITNEDNEETEGSDVPADYLLGDVEGEEDELYLLDPEHAHPEDPECVLPQEAFPLRHEIVDTPPGPEHLQDKADSPHVSGSEADVASLAPVDSSFSLLSVSHALYDSRLPPDFFGVLVRDMLHFYAEQGDVQMAVSVLIVLGERVRKDIDEQTQEHWYTSYIDLLQRFRLWNVSNEVVKLSTSRAVSCLNQASTTLHVNCSHCKRPMSSRGWVCDRCHRCASMCAVCHHVVKGLFVWCQGCSHGGHLQHIMKWLEGSSHCPAGCGHLCEYS |  |  |  | ~2 | 71
3 | Sestrin-2 (SESN2) (natural protein, human (endogenous in HEK293T), UniProt P58004 1-480, looked up, Sestrin-2 (SESN2), leucine-sensing protein, human, endogenous; source: endogenous, HEK (Lenti-X 293T) spCas9+ WDR59-NGFRETD-nLAP clone D5 lysate) MIVADSECRAELKDYLRFAPGGVGDSGPGEEQRESRARRGPRGPSAFIPVEEVLREGAESLEQHLGLEALMSSGRVDNLAVVMGLHPDYFTSFWRLHYLLLHTDGPLASSWRHYIAIMAAARHQCSYLVGSHMAEFLQTGGDPEWLLGLHRAPEKLRKLSEINKLLAHRPWLITKEHIQALLKTGEHTWSLAELIQALVLLTHCHSLSSFVFGCGILPEGDADGSPAPQAPTPPSEQSSPPSRDPLNNSGGFESARDVEALMERMQQLQESLLRDEGTSQEEMESRFELEKSESLLVTPSADILEPSPHPDMLCFVEDPTFGYEDFTRRGAQAPPTFRAQDYTWEDHGYSLIQRLYPEGGQLLDEKFQAAYSLTYNTIAMHSGVDTSVLRRAIWNYIHCVFGIRYDDYDYGEVNQLLERNLKVYIKTVACYPEKTTRRMYNLFWRHFRHSEKVHVNLLLLEARMQAALLYALRAITRYMT |  |  |  | ~2 | 82
4 | MIOS (Meiosis Regulator For Oocyte Development) (natural protein, human (endogenous in HEK293T), UniProt Q9NXC5 1-875, looked up, MIOS (Meiosis Regulator For Oocyte Development), subunit of GATOR2, human, endogenous; also called GATOR2 subunit MIOS; source: endogenous, HEK (Lenti-X 293T) spCas9+ WDR59-NGFRETD-nLAP clone D5 lysate) MSGTKPDILWAPHHVDRFVVCDSELSLYHVESTVNSELKAGSLRLSEDSAATLLSINSDTPYMKCVAWYLNYDPECLLAVGQANGRVVLTSLGQDHNSKFKDLIGKEFVPKHARQCNTLAWNPLDSNWLAAGLDKHRADFSVLIWDICSKYTPDIVPMEKVKLSAGETETTLLVTKPLYELGQNDACLSLCWLPRDQKLLLAGMHRNLAIFDLRNTSQKMFVNTKAVQGVTVDPYFHDRVASFYEGQVAIWDLRKFEKPVLTLTEQPKPLTKVAWCPTRTGLLATLTRDSNIIRLYDMQHTPTPIGDETEPTIIERSVQPCDNYIASFAWHPTSQNRMIVVTPNRTMSDFTVFERISLAWSPITSLMWACGRHLYECTEEENDNSLEKDIATKMRLRALSRYGLDTEQVWRNHILAGNEDPQLKSLWYTLHFMKQYTEDMDQKSPGNKGSLVYAGIKSIVKSSLGMVESSRHNWSGLDKQSDIQNLNEERILALQLCGWIKKGTDVDVGPFLNSLVQEGEWERAAAVALFNLDIRRAIQILNEGASSEKGDLNLNVVAMALSGYTDEKNSLWREMCSTLRLQLNNPYLCVMFAFLTSETGSYDGVLYENKVAVRDRVAFACKFLSDTQLNRYIEKLTNEMKEAGNLEGILLTGLTKDGVDLMESYVDRTGDVQTASYCMLQGSPLDVLKDERVQYWIENYRNLLDAWRFWHKRAEFDIHRSKLDPSSKPLAQVFVSCNFCGKSISYSCSAVPHQGRGFSQYGVSGSPTKSKVTSCPGCRKPLPRCALCLINMGTPVSSCPGGTKSDEKVDLSKDKKLAQFNNWFTWCHNCRHGGHAGHMLSWFRDHAECPVSACTCKCMQLDTTGNLVPAETVQP |  |  |  | ~2 | 85

Source: PMC9700324, “Selection-free endogenous tagging of cell lines by bicistronic co-expression of the surface antigen NGFR” (MethodsX, 2022)
